# Assay results: publication PMC3609803, “SipB-SipC Complex Is Essential for Translocon Formation” (PLoS ONE, 2013)
# Target: T1, GST-SicA (Salmonella enterica serovar Typhimurium, UniProt P69066 1-165)
# T1 construct: SicA, the chaperone for SipC, Salmonella enterica serovar Typhimurium; source: GST-tagged recombinant protein, purified
# Assay: pull-down; purified His-SipC-N and derivatives immobilised on Ni-NTA beads, 1 hr at 4°C; GST or GST-SicA added, 2 hrs at 4°C; washed four times in PBS with 1% NP-40; blotted with anti-His and anti-GST
# Conditions: both partners purified
# T1 sequence (P69066 whole entry): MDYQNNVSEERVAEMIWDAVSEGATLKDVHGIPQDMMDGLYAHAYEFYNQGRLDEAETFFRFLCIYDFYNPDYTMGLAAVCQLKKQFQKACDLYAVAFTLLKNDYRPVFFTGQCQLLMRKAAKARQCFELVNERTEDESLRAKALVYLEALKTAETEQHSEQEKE
binder,measurement,value
"His-SipC-N (domain or fragment, N-terminal region of SipC of Salmonella enterica serovar Typhimurium; also called wild-type SipC-N; source: His-tagged recombinant protein, purified) MLISNVGINPAAYLNNHSVENSSQTASQSVSAKDILNSIGISSSKVSDLGLSPTLSAPAPGVLTQTPGTITSFLKASIQNTDMNQDLNALANNVTTKANEVVQTQLREQQAEVGKFFDIS",binding result,binds
